This assay concerns the target receptor for STOP-1 on the cell surface (unidentified; HeLa, HT1080, HUVEC and MDA-MB-435 cells) (human). The assay is described as follows: flow cytometry on MDA-MB-435 cells, flag-tagged STOP-1 alone, anti-flag M2-FITC detection; detection antibody alone gave approximately 7.99.

“flag-tagged full length human STOP-1 (from UniProt Q96CG8 31-243) (ligand)”: the geometric mean value of the signal intensity came to 13.2.

The values are drawn from patent US20110112279A1.
